Data on 19 molecules can be found in US20250122306A1 (SUTRO BIOPHARMA, published 2025).

To fix the notation:
T1: cynomolgus tissue factor (cynomolgus TF, Sino Bio #90885-C08H) (cynomolgus monkey, UniProt P13726 33-251 (human entry))
T1 construct: bought recombinant antigen; also called cyno TF
T1 chain: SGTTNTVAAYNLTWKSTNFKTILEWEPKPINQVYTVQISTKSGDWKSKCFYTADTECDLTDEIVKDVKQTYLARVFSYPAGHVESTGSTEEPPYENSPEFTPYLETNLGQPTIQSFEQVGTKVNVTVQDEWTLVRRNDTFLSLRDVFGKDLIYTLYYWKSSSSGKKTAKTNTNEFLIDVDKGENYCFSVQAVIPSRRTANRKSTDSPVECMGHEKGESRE

B1: SRP2900-C01 (antibody, IgG1, V domains shown)
VH: EVQLVESGGGLVQPGGSLRLSCAASGFTIGSYWIHWVRQAPGKGLEWVGYIDPSNGYTYYADSVKGRFTISADTSKNTAYLQMNSLRAEDTAVYYCARADYYYVDEYWDYWGQGTLVTVSS
VL: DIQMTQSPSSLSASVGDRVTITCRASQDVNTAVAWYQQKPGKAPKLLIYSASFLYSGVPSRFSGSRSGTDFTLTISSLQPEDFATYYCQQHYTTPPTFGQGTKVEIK
B2: SRP2900-A02 (antibody, IgG1, V domains shown)
VH: MEVQLVESGGGLVQPGGSLRLSCAASGFTISGYIIHWVRQAPGKGLEWVGYIDPSNGYTYYADSVKGRFTISADTSKNTAYLQMNSLRAEDTAVYYCARDDQSLSSPFDYWGQGTLVTVSS
VL: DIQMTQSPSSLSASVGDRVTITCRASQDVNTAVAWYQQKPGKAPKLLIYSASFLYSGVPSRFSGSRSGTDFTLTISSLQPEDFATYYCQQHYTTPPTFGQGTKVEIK
B3: SRP2900-C11 (antibody, IgG1, V domains shown)
VH: EVQLVESGGGLVQPGGSLRLSCAASGFTISQYWIHWVRQAPGKGLEWVGYIDPYNGYTYYADSVKGRFTISADTSKNTAYLQMNSLRAEDTAVYYCARDYGSWRIRLDYWGQGTLVTVSS
VL: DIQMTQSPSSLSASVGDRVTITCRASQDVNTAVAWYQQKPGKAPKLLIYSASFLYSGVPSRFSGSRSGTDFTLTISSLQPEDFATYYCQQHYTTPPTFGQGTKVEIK
B4: SRP2900-F06 (antibody, IgG1, V domains shown)
VH: EVQLVESGGGLVQPGGSLRLSCAASGFTISIYTIHWVRQAPGKGLEWVGYIDPSNGYTYYADSVKGRLTISADTSKNTAYLQMNSLRAEDTAVYYCARDPQSISSPFDYWGQGTLVTVSS
VL: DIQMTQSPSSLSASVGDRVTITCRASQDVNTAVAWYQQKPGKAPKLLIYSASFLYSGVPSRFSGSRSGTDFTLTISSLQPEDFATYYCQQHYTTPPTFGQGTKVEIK
B5: SRP2900-E07 (antibody, IgG1, V domains shown)
VH: B3 VH with W103L, I105V, R106S
VL: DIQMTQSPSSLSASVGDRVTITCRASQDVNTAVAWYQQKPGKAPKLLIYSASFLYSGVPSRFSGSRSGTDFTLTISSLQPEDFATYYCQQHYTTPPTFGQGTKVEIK
B6: SRP2900-F11 (antibody, IgG1, V domains shown)
VH: B4 VH with I31G, T33I, Y59F, L68F, Q82R, P100D, I103L
VL: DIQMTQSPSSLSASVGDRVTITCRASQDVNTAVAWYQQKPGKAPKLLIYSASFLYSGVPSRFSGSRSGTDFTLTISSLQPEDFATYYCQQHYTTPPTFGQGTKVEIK
B7: SRP2900-H09 (antibody, IgG1, V domains shown)
VH: B4 VH with I31D, T33V, L68F, P100D, F107L
VL: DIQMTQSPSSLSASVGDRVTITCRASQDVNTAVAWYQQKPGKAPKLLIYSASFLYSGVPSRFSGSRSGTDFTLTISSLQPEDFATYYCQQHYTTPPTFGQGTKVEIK
B8: SRP2900-H07 (antibody, IgG1, V domains shown)
VH: B4 VH with T28N, S30A, I31Y, L68F, I103F
VL: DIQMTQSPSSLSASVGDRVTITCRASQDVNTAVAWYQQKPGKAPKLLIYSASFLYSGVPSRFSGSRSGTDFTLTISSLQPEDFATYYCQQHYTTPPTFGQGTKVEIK
B9: SRP2900-G02 (antibody, IgG1, V domains shown)
VH: B4 VH with G10D, Q13R, I31Y, T33I, L68F, P100D, I103V, D108E
VL: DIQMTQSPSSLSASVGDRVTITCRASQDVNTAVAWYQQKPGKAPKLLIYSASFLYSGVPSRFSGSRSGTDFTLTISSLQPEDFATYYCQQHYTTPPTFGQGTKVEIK
B10: SRP2900-F02 (antibody, IgG1, V domains shown)
VH: B4 VH with S21A, S30G, I31V, T33I, L68F, P100D, I103V
VL: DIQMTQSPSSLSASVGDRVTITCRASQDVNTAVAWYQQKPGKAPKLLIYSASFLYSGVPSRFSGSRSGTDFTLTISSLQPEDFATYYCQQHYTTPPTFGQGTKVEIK
B11: SRP2900-G05 (antibody, IgG1, V domains shown)
VH: B4 VH with S17L, S30A, I31Y, T33V, L68F, P100D, I103L
VL: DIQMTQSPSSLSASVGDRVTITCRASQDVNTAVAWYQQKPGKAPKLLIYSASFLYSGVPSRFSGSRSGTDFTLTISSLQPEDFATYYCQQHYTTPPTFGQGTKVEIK
B12: SRP2900-H06 (antibody, IgG1, V domains shown)
VH: B4 VH with S30A, I31A, T33I, L68F, P100D, I103F
VL: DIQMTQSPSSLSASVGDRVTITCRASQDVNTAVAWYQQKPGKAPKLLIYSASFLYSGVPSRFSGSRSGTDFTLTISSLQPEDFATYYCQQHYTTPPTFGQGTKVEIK
B13: SRP2900-E06 (antibody, IgG1, V domains shown)
VH: B4 VH with I31G, T33I, Y60H, L68F, P100D, I103V
VL: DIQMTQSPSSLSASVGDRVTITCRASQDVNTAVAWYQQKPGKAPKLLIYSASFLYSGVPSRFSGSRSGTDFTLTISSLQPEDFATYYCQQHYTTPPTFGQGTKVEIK
B14: SRP2900-H11 (antibody, IgG1, V domains shown)
VH: B4 VH with I31S, T33I, L45P, L68F, S102T, I103L, S104T
VL: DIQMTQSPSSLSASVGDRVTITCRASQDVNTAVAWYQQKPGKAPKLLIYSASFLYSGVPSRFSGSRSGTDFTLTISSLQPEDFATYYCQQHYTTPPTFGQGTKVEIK
B15: SRP2900-F09 (antibody, IgG1, V domains shown)
VH: B4 VH with S30H, I31D, T33V, L68F, P100D, F107L
VL: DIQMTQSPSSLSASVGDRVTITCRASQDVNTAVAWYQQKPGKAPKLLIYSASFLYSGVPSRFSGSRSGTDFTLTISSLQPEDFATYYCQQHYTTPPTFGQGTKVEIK
B16: SRP2900-E02 (antibody, IgG1, V domains shown)
VH: B4 VH with I31D, T33V, S63P, L68F, I103F, S104Y, S105I, P106A
VL: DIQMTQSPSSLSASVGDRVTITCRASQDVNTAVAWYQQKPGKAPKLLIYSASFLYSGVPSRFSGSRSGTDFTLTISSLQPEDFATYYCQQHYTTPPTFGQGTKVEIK
B17: SRP2900-G03 (antibody, IgG1, V domains shown)
VH: B4 VH with S30N, I31N, T33I, L68F, I103L
VL: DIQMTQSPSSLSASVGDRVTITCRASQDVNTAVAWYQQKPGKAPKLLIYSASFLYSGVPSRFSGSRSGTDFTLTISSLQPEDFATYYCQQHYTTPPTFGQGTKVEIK
B18: SRP2900-F08 (antibody, IgG1, V domains shown)
VH: B4 VH with S30A, I31Y, T33I, L68F, P100D, I103L
VL: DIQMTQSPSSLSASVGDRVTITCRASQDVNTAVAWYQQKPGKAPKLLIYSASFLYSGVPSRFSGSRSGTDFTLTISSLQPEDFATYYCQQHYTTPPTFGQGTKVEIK
B19: Conjugate 6: 2900-A02 Y180/F241/F404/k42-LP1 (antibody, human IgG1, kappa)
heavy: MEVQLVESGGGLVQPGGSLRLSCAASGFTISGYIIHWVRQAPGKGLEWVGYIDPSNGYTYYADSVKGRFTISADTSKNTAYLQMNSLRAEDTAVYYCARDDQSLSSPFDYWGQGTLVTVSSASTKGPSVFPLAPSSKSTSGGTAALGCLVKDYFPEPVTVSWNSGALTSGVHTFPAVLQSSGLSLSSVVTVPSSSLGTQTYICNVNHKPSNTKVDKKVEPKSCDKTHTCPPCPAPELLGGPSVLFPPKPKDTLMISRTPEVTCVVVDVSHEDPEVKFNWYVDGVEVHNAKTKPREEQYNSTYRVVSVLTVLHQDWLNGKEYKCKVSNKALPAPIEKTISKAKGQPREPQVYTLPPSREEMTKNQVSLTCLVKGFYPSDIAVEWESNGQPENNYKTTPPVLDSDGSFLYSKLTVDKSRWQQGNVFSCSVMHEALHNHYTQKSLSLSPGK
light: MDIQMTQSPSSLSASVGDRVTITCRASQDVNTAVAWYQQKPGAPKLLIYSASFLYSGVPSRFSGSRSGTDFTLTISSLQPEDFATYYCQQHYTTPPTFGQGTKVEIKRTVAAPSVFIFPPSDEQLKSGTASVVCLLNNFYPREAKVQWKVDNALQSGNSQESVTEQDSKDSTYSLSSTLTLSKADYEKHKVYACEVTHQGLSSPVTKSFNRGEC
modifications: pAMF at K42 linked to LP1; pAMF at Y180, F241 and F404 (EU), each linked to LP1 (DBCO-Valcit-pAB-hemiasterlin)

Residue numbers refer to the chain shown, from its start.

The target in one experiment is T2, human tissue factor (human TF, Lake Pharma) (human, UniProt P13726 33-251, limits assumed).
T2 construct: bought recombinant antigen; also called CD142
Put plainly: Biacore SPR, single-point off-rate (100 nM antigen), antibody captured on anti-Fc. The method, then: (§1) Anti-Fc polyclonal antibodies were immobilized onto a CM4 chip (Cytiva #BR100534) using amine coupling chemistry (Human Antibody Capture Kit, Cytiva #BR100839). The immobilization steps were carried out at a flow rate of 25 μL/min in 1×HBS-EP+buffer (Cytiva #BR100669). The sensor surfaces were activated for 7 min with a mixture of N-hydroxysuccinimide (NHS, 0.05 M) and 1-ethyl-3-(3-dimethylaminopropyl)-carbodiimide (EDC, 0.2 M). The anti-Fc polyclonal antibodies were injected over all 4 flow cells at a concentration of 25 μg/mL in 10 mM sodium acetate, pH 4.5, for 7 min. Ethanolamine (1 M, pH 8.5) was injected for 7 min to block any remaining activated groups.
(§2) Off-rate and kinetic binding experiments were performed at 25° C. using 1×HBS-EP+buffer. Antibodies were injected over the anti-Fc surface at a concentration of 3 μg/mL for 12 seconds at a flow rate of 10 μL/min on flow cells 2, 3 and 4, followed by a buffer wash for 30 seconds at the same flow rate. Single point off-rate analysis was carried out using an antigen concentration of 100 nM. […] After capturing ligand (antibody) on the anti-Fc surface, the analyte (human TF, Lake Pharma; cynomolgus TF, Sino Bio #90885-C08H; mouse TF, R&D Systems #3178-PA) was bound for 180 seconds, followed by a 420 second dissociation phase at a flow rate of […]. Between each ligand capture and analyte binding cycle, regeneration was carried out using 2 injections of 10 mM glycine pH 2.0 for 30 seconds at 30 μL/min, followed by a 30 second buffer wash step.
On to B1, for which the koff was determined as 0.00183 s⁻¹.

As for B2, the koff amounted to 0.00116 s⁻¹.

For B3, the koff is 0.000842 s⁻¹.

For B4, the koff is 0.00423 s⁻¹.

B5 showed a dissociation rate constant (koff) of 0.000511 s⁻¹.

With B6, the dissociation rate constant (koff) was found to be 0.00204 s⁻¹.

B7 displayed an off-rate constant (koff) of 0.00169 s⁻¹.

Consider B8, for which the koff stood at 0.00205 s⁻¹.

For B9, the off-rate constant (koff) turned out to be 0.00415 s⁻¹.

Molecule B10 yielded a koff of 0.00274 s⁻¹.

Regarding B11, the koff is 0.00115 s⁻¹.

B12 yielded a dissociation rate constant (koff) of 0.00347 s⁻¹.

As for B13, the koff amounted to 0.000978 s⁻¹.

Turning to B14, the koff amounted to 0.0025 s⁻¹.

B15 yielded a dissociation rate constant (koff) of 0.00139 s⁻¹.

Turning to B16, the koff came to 0.000528 s⁻¹.

Regarding B17, the off-rate (koff) is 0.000699 s⁻¹.

B18 gave an off-rate (koff) of 0.00131 s⁻¹.

In another experiment the target is T1, cynomolgus tissue factor (cynomolgus …). The experiment is described as above. How it is done: as §1, §2
For B1, the off-rate constant (koff) was 0.00118 s⁻¹.

With B2, the koff stood at 0.000761 s⁻¹.

For the molecule B3, the koff was 0.00257 s⁻¹.

B4 displayed a koff of 0.00184 s⁻¹.

B5: the koff was determined as 0.00113 s⁻¹.

In turn, B6 returned an off-rate constant (koff) of 0.00115 s⁻¹.

Turning to B7, the off-rate constant (koff) was determined as 0.00584 s⁻¹.

Consider B8, for which the koff is 0.0013 s⁻¹.

Turning to B9, the off-rate (koff) is 0.00141 s⁻¹.

B10: the off-rate constant (koff) was 0.000696 s⁻¹.

The molecule B11 came in with a dissociation rate constant (koff) of 0.000667 s⁻¹.

For the molecule B12, the koff turned out to be 0.000648 s⁻¹.

Regarding B13, the off-rate (koff) was 0.000689 s⁻¹.

Consider B14, for which the dissociation rate constant (koff) is 0.000946 s⁻¹.

For the molecule B15, the koff was found to be 0.00215 s⁻¹.

The molecule B16 came in with a koff of 0.00182 s⁻¹.

B17: the koff came out at 0.00195 s⁻¹.

For the molecule B18, the koff was determined as 0.000665 s⁻¹.

The target of the next experiment is tissue factor reagent of the Tissue Factor Activity Assay Kit (Abcam #ab108906) (UniProt P13726 33-295, limits assumed). As to the kind of experiment: cell-based or functional assay.
With B1, the “FX conversion (% inhibition), 1000 nM antibody” value (from here on “FX conversion (% inhibition)”) came out at 16.4%.

With B2, the “FX conversion (% inhibition)” value came out at 0.21%.

Turning to B3, the “FX conversion (% inhibition)” value came out at 12.4%.

As for B4, the “FX conversion (% inhibition)” value is 1.72%.

Regarding B5, the “FX conversion (% inhibition)” value was found to be 15.6%.

Take B6: the “FX conversion (% inhibition)” value came to 6.38%.

As to B7, the “FX conversion (% inhibition)” value came out at 4.48%.

For the molecule B8, the “FX conversion (% inhibition)” value was found to be 13.5%.

As for B9, the “FX conversion (% inhibition)” value is -0.11%.

B10: the “FX conversion (% inhibition)” value turned out to be 0.23%.

As for B11, the “FX conversion (% inhibition)” value was 12.1%.

As for B12, the “FX conversion (% inhibition)” value was found to be 4.04%.

Turning to B13, the “FX conversion (% inhibition)” value amounted to 18.7%.

In the case of B14, the “FX conversion (% inhibition)” value was -3.63%.

For the molecule B15, the “FX conversion (% inhibition)” value turned out to be 5.23%.

As to B16, the “FX conversion (% inhibition)” value is 17.7%.

Turning to B17, the “FX conversion (% inhibition)” value came to 20%.

As to B18, the “FX conversion (% inhibition)” value worked out at 9.78%.

The target in a further experiment is human tissue factor on cells (human, UniProt P13726 33-295). As to the kind of experiment: cell-based or functional assay.
On to B19, for which the “cell killing EC50, HCC1954 (TF+++)” value was 0.085 nM; the “cell killing EC50, HCC1954, with 0.5 uM unconjugated mAb 40” value was greater than 100 nM; the “cell killing EC50, NCI-H292 (TF++++)” value was found to be 0.044 nM; the “cell killing EC50, NCI-H292, with 0.5 uM unconjugated mAb 40” value was greater than 100 nM. In addition, the “cell killing EC50, NCI-H1975 (TF++)” value was roughly 5 nM; the “cell killing EC50, NCI-H1975, with 0.5 uM unconjugated mAb 40” value is greater than 100 nM; the “cell killing Span, HCC1954 (TF+++)” value turned out to be 93%; the “cell killing Span, NCI-H292 (TF++++)” value came to 86%. Further, the “cell killing Span, NCI-H1975 (TF++)” value amounted to 71%.
